Source: patent US20240109954A1 (GENERAL HOSPITAL, published 2024)

T1: mouse FcγRIII (mouse, UniProt P08508 31-215)
T1 construct: also called mFcγRIII; mFcγR3
T1 sequence: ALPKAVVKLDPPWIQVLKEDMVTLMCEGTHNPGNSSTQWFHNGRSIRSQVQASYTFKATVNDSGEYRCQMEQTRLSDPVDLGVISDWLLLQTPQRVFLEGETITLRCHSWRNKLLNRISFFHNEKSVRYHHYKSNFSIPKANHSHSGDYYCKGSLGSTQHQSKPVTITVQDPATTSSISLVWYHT

T2: mouse FcγRIIb (mouse, UniProt P08101 30-210)
T2 construct: also called mFcγRIIb; mFcγR2b
T2 sequence: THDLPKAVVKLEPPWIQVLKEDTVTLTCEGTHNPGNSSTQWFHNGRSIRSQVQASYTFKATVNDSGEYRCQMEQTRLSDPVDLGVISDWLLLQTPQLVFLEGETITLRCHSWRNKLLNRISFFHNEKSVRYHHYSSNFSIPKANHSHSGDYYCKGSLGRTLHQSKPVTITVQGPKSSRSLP

T3: mouse FcγRI (mouse, UniProt P26151 25-297)
T3 construct: also called mFcγRI
T3 sequence: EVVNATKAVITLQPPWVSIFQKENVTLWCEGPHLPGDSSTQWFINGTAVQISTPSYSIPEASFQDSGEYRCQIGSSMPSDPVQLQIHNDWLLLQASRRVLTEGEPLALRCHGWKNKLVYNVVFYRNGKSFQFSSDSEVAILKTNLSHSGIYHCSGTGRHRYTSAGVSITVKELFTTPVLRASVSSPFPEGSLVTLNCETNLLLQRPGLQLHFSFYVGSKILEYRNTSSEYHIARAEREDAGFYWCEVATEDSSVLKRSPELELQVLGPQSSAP

T4: mouse FcγRIV (mouse, UniProt A0A0B4J1G0 21-203)
T4 construct: also called mFcγRIV
T4 sequence: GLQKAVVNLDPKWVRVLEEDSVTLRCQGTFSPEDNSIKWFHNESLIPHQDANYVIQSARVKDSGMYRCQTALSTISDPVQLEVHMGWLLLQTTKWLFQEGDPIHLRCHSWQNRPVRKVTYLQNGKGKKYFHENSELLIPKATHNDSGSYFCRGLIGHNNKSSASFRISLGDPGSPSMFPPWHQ

T5: human FcγR2B (human, UniProt P31994 43-217)
T5 construct: also called huFcγR2B
T5 sequence: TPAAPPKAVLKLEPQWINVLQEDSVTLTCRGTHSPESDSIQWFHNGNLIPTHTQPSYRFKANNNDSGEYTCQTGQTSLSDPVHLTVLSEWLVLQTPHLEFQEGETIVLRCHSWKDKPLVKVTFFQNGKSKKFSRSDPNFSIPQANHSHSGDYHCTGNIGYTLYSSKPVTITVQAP

T6: human FcγR2A (R131) (human, UniProt P12318 34-217)
T6 construct: also called huFcγR2A
T6 sequence: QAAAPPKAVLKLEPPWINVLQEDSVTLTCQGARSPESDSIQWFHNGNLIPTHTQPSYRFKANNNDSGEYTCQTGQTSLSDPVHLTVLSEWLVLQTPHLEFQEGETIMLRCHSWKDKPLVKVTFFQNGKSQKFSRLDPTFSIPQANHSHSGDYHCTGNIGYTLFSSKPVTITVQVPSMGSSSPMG

T7: EBOV GP displayed on vesicular stomatitis virus (VSV) pseudovirions (Ebola virus, UniProt Q05320 33-676)
T7 sequence: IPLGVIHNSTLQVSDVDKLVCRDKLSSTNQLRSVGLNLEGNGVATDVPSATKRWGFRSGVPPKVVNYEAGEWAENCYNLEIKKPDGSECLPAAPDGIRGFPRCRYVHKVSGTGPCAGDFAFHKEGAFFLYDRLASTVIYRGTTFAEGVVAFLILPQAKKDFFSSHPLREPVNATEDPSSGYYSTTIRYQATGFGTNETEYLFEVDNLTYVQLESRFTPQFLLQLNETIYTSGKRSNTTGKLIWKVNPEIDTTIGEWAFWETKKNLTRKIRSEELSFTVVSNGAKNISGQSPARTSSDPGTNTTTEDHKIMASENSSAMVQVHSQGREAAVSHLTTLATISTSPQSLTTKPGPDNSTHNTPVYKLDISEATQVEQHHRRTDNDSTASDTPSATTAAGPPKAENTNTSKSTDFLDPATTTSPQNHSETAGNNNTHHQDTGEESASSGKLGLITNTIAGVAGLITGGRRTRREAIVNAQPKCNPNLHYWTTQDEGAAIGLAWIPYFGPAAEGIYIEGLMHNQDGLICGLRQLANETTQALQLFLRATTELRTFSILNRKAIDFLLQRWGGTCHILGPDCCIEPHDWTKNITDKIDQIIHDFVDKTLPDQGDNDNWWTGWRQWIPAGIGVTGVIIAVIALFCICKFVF

B1: VIC16-IgG1 (antibody)
heavy: not shown
light: DIVITQDTASLAVSRGQRATISCRASESVEYYGTTLMQWYQQRPGQPPKLLIYGASNVESGVPARFSGSGSGTDFSLNIHPVEEDDIAMYFCQQSRKVPYTFGGGTKLEIKRTVAAPSVFIFPPSDEQLKSGTASVVCLLNNFYPREAKVQWKVDNALQSGNSQESVTEQDSKDSTYSLSSTLTLSKADYEKHKVYACEVTHQGLSSPVTKSFNRGEC
notes: also called VIC16 human IgG1; wild type IgG1
B2: VIC16-SELF (antibody)
heavy: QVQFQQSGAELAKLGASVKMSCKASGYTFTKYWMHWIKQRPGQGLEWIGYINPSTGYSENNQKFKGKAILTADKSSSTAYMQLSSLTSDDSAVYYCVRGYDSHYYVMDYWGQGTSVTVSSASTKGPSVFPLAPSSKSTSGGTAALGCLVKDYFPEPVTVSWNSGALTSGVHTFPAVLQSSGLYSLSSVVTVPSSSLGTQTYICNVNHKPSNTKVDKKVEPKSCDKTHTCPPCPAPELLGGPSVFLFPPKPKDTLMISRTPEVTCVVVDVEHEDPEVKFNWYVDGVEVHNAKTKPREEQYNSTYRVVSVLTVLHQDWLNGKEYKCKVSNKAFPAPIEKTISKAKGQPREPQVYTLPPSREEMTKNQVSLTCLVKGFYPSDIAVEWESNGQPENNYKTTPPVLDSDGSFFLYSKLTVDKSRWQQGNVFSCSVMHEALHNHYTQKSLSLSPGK
light: B1 light
B3: VIC16-E333A (antibody)
heavy: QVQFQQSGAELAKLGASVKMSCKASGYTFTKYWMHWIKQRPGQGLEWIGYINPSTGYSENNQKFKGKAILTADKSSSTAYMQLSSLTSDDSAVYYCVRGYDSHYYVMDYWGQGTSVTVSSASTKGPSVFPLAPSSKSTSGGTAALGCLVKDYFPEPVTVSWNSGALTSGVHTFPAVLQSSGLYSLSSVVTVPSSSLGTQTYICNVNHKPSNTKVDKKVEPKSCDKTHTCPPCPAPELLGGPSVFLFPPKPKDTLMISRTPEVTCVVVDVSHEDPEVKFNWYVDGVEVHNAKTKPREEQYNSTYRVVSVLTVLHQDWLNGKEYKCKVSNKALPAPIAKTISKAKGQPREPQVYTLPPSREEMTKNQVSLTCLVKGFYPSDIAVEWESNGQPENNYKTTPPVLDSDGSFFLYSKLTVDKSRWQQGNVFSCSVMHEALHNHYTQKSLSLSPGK
light: B1 light
B4: VIC16-KWES (antibody)
heavy: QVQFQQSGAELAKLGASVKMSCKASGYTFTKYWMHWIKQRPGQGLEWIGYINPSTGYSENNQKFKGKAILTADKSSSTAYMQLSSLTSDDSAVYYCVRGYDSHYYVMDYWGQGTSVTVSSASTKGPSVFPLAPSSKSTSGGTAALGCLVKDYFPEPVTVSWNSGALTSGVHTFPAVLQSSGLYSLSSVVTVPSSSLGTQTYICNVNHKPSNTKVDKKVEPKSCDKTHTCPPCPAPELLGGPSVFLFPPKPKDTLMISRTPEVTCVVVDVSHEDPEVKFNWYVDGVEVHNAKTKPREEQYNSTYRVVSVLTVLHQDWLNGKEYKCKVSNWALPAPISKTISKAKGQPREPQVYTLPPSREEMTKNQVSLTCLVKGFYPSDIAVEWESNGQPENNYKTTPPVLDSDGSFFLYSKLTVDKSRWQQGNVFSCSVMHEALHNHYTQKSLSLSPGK
light: B1 light
B5: VIC16-K326W (antibody)
heavy: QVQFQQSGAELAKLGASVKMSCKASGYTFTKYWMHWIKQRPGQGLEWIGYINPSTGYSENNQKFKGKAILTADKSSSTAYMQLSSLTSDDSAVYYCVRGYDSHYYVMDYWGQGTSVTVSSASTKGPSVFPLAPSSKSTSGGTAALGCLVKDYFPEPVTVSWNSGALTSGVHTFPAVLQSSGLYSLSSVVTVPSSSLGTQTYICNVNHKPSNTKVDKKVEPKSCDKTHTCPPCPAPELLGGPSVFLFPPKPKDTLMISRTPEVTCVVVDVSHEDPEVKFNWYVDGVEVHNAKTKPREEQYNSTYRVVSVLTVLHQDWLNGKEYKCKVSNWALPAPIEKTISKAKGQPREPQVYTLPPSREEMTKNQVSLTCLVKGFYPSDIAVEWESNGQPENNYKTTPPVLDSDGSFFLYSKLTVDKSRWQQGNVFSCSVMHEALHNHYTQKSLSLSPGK
light: B1 light
B6: VIC16-EFTEA (antibody)
heavy: QVQFQQSGAELAKLGASVKMSCKASGYTFTKYWMHWIKQRPGQGLEWIGYINPSTGYSENNQKFKGKAILTADKSSSTAYMQLSSLTSDDSAVYYCVRGYDSHYYVMDYWGQGTSVTVSSASTKGPSVFPLAPSSKSTSGGTAALGCLVKDYFPEPVTVSWNSGALTSGVHTFPAVLQSSGLYSLSSVVTVPSSSLGTQTYICNVNHKPSNTKVDKKVEPKSCDKTHTCPPCPAPELLAGPSVFLFPPKPKDTLMISRTPEVTCVVVDVEFEDPEVKFNWYVDGVEVHNAKTKPREEQYNSTYRVVSVLTVLHQDWLNGKEYKCKVTNKALPAPEEKTISKAKGQPREPQVYTLPPSREEMTKNQVSLTCLVKGFYPSDIAVEWESNGQPENNYKTTPPVLDSDGSFFLYSKLTVDKSRWQQGNVFSCSVMHEALHNHYTQKSLSLSPGK
light: B1 light

Columns and labels:
[1] = target: T1, mouse FcγRIII; assay: BLI, mAb on anti-human Fab-CH1 sensor, FcγR in solution
[2] = target: T2, mouse FcγRIIb; assay: as above
[3] = target: T3, mouse FcγRI; assay: as above
[4] = target: T4, mouse FcγRIV; assay: as above
[5] = target: T5, human FcγR2B; assay: SPR, mAb printed on chip, FcγR injected
[6] = target: T6, human FcγR2A (R131); assay: SPR, mAb printed on chip, FcγR injected
[7] = target: T8, human FcγR3A (F158) (human, UniProt P08637 17-208); assay: SPR, mAb printed on chip, FcγR injected
T8 construct: also called huFcγR3A
T8 sequence (P08637 17-208): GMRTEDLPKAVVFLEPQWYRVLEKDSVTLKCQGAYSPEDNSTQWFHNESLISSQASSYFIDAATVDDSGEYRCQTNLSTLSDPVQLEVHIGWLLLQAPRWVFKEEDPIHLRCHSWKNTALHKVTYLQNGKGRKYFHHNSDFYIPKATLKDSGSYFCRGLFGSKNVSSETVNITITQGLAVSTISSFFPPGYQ

[8] = target: T9, human FcγR3B (human, UniProt O75015 17-200); assay: SPR, mAb printed on chip, FcγR injected
T9 construct: also called huFcγR3B
T9 sequence (O75015 17-200): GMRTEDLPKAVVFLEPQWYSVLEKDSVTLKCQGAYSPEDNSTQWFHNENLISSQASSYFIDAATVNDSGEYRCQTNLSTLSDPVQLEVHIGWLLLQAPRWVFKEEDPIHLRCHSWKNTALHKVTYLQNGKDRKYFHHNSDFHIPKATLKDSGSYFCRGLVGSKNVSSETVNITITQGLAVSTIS

[9] = target: T4, mouse FcγRIV; assay: SPR (IBIS MX96): mAb printed on the chip, recombinant FcγR injected at 10 to 0.005 µM; axis 'KD, M^-1', that is the reciprocal of KD
[10] = target: T2, mouse FcγRIIb; assay: as above
[11] = target: T9, human FcγR3B; assay: SPR, mAb printed on chip, FcγR injected; ND = not detected
[12] = target: T7, EBOV GP displayed on vesicular …; assay: cell-based or functional assay
[13] = target: T2, mouse FcγRIIb; assay: BLI, mAb on anti-human Fab-CH1 sensor, FcγR in solution; remark: listed apart in the source
[14] = target: T6, human FcγR2A (R131); assay: SPR, mAb printed on chip, FcγR injected; remark: listed apart in the source

Row | Binder | Kd [1] [µM] | fold-change relative to IgG1 [1] [fold] | Kd [2] [µM] | fold-change relative to IgG1 [2] [fold] | Kd [3] [µM] | fold-change relative to IgG1 [3] [fold] | Kd [4] [µM] | fold-change relative to IgG1 [4] [fold] | Kd [5] [µM] | fold-change relative to IgG1 [5] [fold] | Kd [6] [µM] | fold-change relative to IgG1 [6] [fold] | Kd [7] [µM] | fold-change relative to IgG1 [7] [fold] | Kd [8] [µM] | fold-change relative to IgG1 [8] [fold] | binding result [9] | IC50, neutralization of VSV pseudotyped to display EBOV GP [12] [µg/mL] | other results
1 | B1 | 2.83 | 1 | 14.9 | 1 | 0.08 | 1 | 0.24 | 1 | 23 | 1 | 30 | 1 | 6.1 | 1 | 25 | 1 |  |  | 
2 | B2 |  |  |  |  |  |  |  |  |  |  |  |  |  |  |  |  | binds |  | 
3 | B3 |  |  |  |  |  |  |  |  |  |  |  |  |  |  |  |  |  |  | binding result [10]: binds
4 | B4 | 0.02 | 0.94 | 46 | 0.3 | 0.07 | 1.1 | 0.16 | 1.5 | 224 | 0.12 | 8.6 | 3.4 | 1.6 | 3.8 |  |  |  | < 1 | binding result [11]: no binding (tested: FcγR 10 µM to 0.005 µM)
5 | B5 |  |  |  |  |  |  |  |  |  |  |  |  |  |  |  |  | binds |  | 
6 | B6 | 1.1 | 9 | 0.49 | 30 | 0.06 | 1.3 | 0.12 | 2 | 1.2 | 19 | 0.252 | 119 | 6.1 | 1 | 475 | 0.05 |  | < 1 | fold increase in binding [13]: 2 fold; fold higher KD compared to IgG1 [14]: 120 fold
